According to patent US20260374820 (published 2026):
Read-outs that look alike come from different tables or passages of the source. Bridges are numbered along the chain shown (N, C = ends). Where no end group is shown, it is not given here.

T1: human MuSK (human, UniProt O15146)
T1 chain: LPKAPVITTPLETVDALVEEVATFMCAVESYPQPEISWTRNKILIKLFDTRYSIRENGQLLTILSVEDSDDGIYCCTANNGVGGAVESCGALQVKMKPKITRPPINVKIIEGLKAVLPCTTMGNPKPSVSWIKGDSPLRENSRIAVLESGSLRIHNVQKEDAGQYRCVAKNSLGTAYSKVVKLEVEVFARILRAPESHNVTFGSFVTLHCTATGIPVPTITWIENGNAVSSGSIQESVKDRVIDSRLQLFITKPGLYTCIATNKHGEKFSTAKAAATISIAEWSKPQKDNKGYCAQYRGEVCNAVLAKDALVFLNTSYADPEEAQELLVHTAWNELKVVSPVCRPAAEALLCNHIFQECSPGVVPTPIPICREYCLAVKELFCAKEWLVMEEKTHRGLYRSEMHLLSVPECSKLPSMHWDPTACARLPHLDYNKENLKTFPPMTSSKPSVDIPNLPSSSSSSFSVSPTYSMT

T2: mouse MuSK (mouse, UniProt Q61006)
T2 chain: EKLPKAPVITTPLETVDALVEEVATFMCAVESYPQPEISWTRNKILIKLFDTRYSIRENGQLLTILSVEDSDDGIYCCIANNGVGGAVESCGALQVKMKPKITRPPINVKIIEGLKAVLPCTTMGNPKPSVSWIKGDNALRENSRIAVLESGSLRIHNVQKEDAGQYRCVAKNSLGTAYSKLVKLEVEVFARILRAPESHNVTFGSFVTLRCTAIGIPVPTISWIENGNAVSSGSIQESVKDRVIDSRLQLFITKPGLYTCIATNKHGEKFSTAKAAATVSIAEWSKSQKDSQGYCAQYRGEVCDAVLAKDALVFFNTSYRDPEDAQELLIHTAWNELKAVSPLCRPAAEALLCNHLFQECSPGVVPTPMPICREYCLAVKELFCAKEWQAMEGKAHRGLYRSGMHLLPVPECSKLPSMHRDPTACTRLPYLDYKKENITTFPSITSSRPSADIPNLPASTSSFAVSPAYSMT

T3: rat MuSK (rat, UniProt Q62838)
T3 chain: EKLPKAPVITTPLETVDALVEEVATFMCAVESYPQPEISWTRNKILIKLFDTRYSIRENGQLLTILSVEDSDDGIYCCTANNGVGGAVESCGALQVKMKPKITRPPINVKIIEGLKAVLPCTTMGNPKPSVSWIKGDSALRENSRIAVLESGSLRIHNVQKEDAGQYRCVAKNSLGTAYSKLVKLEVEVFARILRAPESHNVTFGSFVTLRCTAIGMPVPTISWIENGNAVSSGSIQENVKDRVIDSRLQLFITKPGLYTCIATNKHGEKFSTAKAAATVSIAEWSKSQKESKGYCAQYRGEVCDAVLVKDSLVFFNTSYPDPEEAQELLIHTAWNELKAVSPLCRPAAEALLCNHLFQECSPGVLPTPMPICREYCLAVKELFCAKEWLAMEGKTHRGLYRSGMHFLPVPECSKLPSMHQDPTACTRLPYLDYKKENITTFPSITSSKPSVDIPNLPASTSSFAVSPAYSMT


Experiments:
Assay in all cases: SPR
[1] = biological target: T1, human MuSK
[2] = biological target: T2, mouse MuSK
[3] = biological target: T3, rat MuSK
[4] = biological target: T1, human MuSK
[5] = biological target: T1, human MuSK

Binder | Kd [4] | other results
MuSK7-pal (macrocyclic homodimer with palmitoyl group) chain 1: YPSYHTNVVASLKRC chain 2: YPSYHTNVVASLKRC | – | Kd [1]: 0.9 nM; Kd [2]: 8.8 nM; Kd [3]: 2 nM
MuSK9 PEG3 dimer (not fully specified (N-terminus, C-terminus, bridges); cysteine pairing not given here; also: homodimer via PEG3 linker, attachment not given here) chain 1: YWYLQPGYVNIVTSYHC chain 2: YWYLQPGYVNIVTSYHC | 2.1 nM | –
MuSK1Ac Term PEG11 dimer (protein, also: homodimer via terminal PEG11 linker, terminus not given here, name suffix Ac, meaning not given here) chain 1: YLPEFSWPESFVLFLRQRQRQLGRGAE chain 2: YLPEFSWPESFVLFLRQRQRQLGRGAE | 3.6 nM | –
YLPEFSWPESFVLFLRQRQRQLGRGAE (also: name suffix Ac, meaning not given here) [MuSK1Ac] | – | Kd [5]: 1.6 nM
MuSK7 PEG11 dimer (not fully specified (N-terminus, C-terminus, bridges); cysteine pairing not given here; also: homodimer via Bis-Mal-dPEG11 linker, attachment not given here) chain 1: YPSYHTNVVASLKRC chain 2: YPSYHTNVVASLKRC | 1.3 nM | –
MuSK4 PEG3 dimer (not fully specified (N-terminus, C-terminus, bridges); cysteine pairing not given here; also: homodimer via PEG3 linker, attachment not given here) chain 1: YFPTNVVSLLKSC chain 2: YFPTNVVSLLKSC | 6.8 nM | –
MuSK1Ac Term PEG3 dimer (protein, also: homodimer via terminal PEG3 linker, terminus not given here, name suffix Ac, meaning not given here) chain 1: YLPEFSWPESFVLFLRQRQRQLGRGAE chain 2: YLPEFSWPESFVLFLRQRQRQLGRGAE | 6 nM | –
MuSK9 PEG11 dimer (not fully specified (N-terminus, C-terminus, bridges); cysteine pairing not given here; also: homodimer via Bis-Mal-dPEG11 linker, attachment not given here) chain 1: YWYLQPGYVNIVTSYHC chain 2: YWYLQPGYVNIVTSYHC | 3.9 nM | –
MuSK1Ac PEG3 dimer (protein, also: homodimer via PEG3 linker, attachment not given here, name suffix Ac, meaning not given here) chain 1: YLPEFSWPESFVLFLRQRQRQLGRGAE chain 2: YLPEFSWPESFVLFLRQRQRQLGRGAE | 4.4 nM | –
MuSK4 PEG11 dimer (not fully specified (N-terminus, C-terminus, bridges); cysteine pairing not given here; also: homodimer via Bis-Mal-dPEG11 linker, attachment not given here) chain 1: YFPTNVVSLLKSC chain 2: YFPTNVVSLLKSC | 6.9 nM | –
{CH2CO}-YFPTNVVSLLKSC (thioether N-13 (inferred); not fully specified (C-terminus)) [MuSK4] | – | Kd [5]: 250 nM
MuSK7 PEG3 dimer (not fully specified (N-terminus, C-terminus, bridges); cysteine pairing not given here; also: homodimer via PEG3 linker, attachment not given here) chain 1: YPSYHTNVVASLKRC chain 2: YPSYHTNVVASLKRC | 0.62 nM | –
MuSK1Ac PEG11 dimer (protein, also: homodimer via PEG11 linker, attachment not given here, name suffix Ac, meaning not given here) chain 1: YLPEFSWPESFVLFLRQRQRQLGRGAE chain 2: YLPEFSWPESFVLFLRQRQRQLGRGAE | 1.5 nM | –
{CH2CO}-YPSYHTNVVASLKRC (thioether N-15 (inferred); not fully specified (C-terminus)) [MuSK7] | – | Kd [5]: 160 nM
YLPEFSWPESFVLFLRQRQRQLGRGAE (not fully specified (bridges); also: thioether macrocycle stated, places not given here) [MuSK1] | – | Kd [5]: 2.2 nM
